From publication PMC8800109 (iScience, 2022)
Read-outs that look alike come from different tables or passages of the source.

Experiments:
briakinumab-YTE (human) [1] = assay: MST
briakinumab (human) [2] = assay: MST
briakinumab/IL12 (human) [3] = molecular target: briakinumab/IL12 (human) (UniProt P29460); assay: MST
[4] = molecular target: briakinumab-YTE/IL12 (human) (UniProt P29460); assay: MST
[5] = molecular target: ustekinumab-YTE/IL12 (human) (UniProt P29460); assay: MST
ustekinumab-YTE (human) [6] = assay: MST
ustekinumab (human) [7] = assay: MST
ustekinumab/IL12 (human) = ustekinumab/IL12 (human) (UniProt P29460); assay: MST
briakinumab-YTE (human) [8] = assay: MST; remark: listed apart in the source
briakinumab (human) [9] = assay: MST; remark: listed apart in the source
briakinumab/IL12 (human) [10] = molecular target: briakinumab/IL12 (human) (UniProt P29460); assay: MST; remark: listed apart in the source
[11] = molecular target: briakinumab-YTE/IL12 (human) (UniProt P29460); assay: MST; remark: listed apart in the source
[12] = molecular target: ustekinumab-YTE/IL12 (human) (UniProt P29460); assay: MST; remark: listed apart in the source
ustekinumab-YTE (human) [13] = assay: SPR
ustekinumab (human) [14] = assay: SPR
briakinumab-YTE (human) [15] = assay: SPR
briakinumab (human) [16] = assay: SPR
[17] = molecular target: recombinant form of hFcRn immobilized on the analytical FcRn column (UniProt P55899); assay: analytical hFcRn affinity chromatography
recombinant form of hFcRn immobilized on the analytical FcRn column, sequence (P55899 24-297, chain 1 of 2): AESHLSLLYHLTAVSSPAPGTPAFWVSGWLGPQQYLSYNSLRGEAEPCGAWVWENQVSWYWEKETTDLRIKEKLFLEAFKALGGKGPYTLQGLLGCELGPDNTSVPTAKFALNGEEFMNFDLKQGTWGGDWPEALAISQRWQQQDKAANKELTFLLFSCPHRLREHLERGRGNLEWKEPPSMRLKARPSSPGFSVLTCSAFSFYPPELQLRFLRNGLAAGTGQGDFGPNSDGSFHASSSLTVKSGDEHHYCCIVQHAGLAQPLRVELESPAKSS
recombinant form of hFcRn immobilized on the analytical FcRn column, sequence (P61769 21-119, chain 2 of 2, further chain): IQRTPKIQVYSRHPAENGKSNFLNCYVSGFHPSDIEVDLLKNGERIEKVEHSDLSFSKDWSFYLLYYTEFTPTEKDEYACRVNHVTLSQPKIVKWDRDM

recombinant human IL-12 = recombinant human IL-12 (Homo sapiens, UniProt P29460;P29459); assay: ELISA

truncated monomeric His-tagged hFcRn (from UniProt P55899 24-365; P61769 21-119) (receptor)
Kd (briakinumab-YTE (human) [1]): > 20000 nM | Kd (briakinumab (human) [2]): > 25000 nM | Kd (briakinumab/IL12 (human) [3]): > 10000 nM | Kd [4]: > 4000 nM | Kd [5]: > 20000 nM | Kd (ustekinumab-YTE (human) [6]): 100 nM | Kd (ustekinumab (human) [7]): 497 nM | Kd (ustekinumab/IL12 (human)): 1000 nM | Kd (briakinumab-YTE (human) [8]): 79 nM | Kd (briakinumab (human) [9]): 599 nM | Kd (briakinumab/IL12 (human) [10]): 533 nM | Kd [11]: 98 nM | Kd [12]: 78 nM | Kd (ustekinumab-YTE (human) [13]): 95.5 nM | Kd (ustekinumab (human) [14]): 653 nM | Kd (briakinumab-YTE (human) [15]): 64 nM | Kd (briakinumab (human) [16]): 545 nM

ustekinumab (antibody)
elution pH from the hFcRn column [17]: 7.2 pH

ustekinumab-YTE (antibody)
elution pH from the hFcRn column [17]: 7.9 pH

B1: briakinumab (antibody, V domains shown)
VH: QVQLVESGGGVVQPGRSLRLSCAASGFTFSSYGMHWVRQAPGKGLEWVAFIRYDGSNKYYADSVKGRFTISRDNSKNTLYLQMNSLRAEDTAVYYCKTHGSHDNWGQGTMVTVSS
VL: QSVLTQPPSVSGAPGQRVTISCSGSRSNIGSNTVKWYQQLPGTAPKLLIYYNDQRPSGVPDRFSGSKSGTSASLAITGLQAEDEADYYCQSYDRYTHPALLFGTGTKVTVL
binding result (recombinant human IL-12): binds

B2: briakinumab-YTE (antibody, V domains shown)
VH: QVQLVESGGGVVQPGRSLRLSCAASGFTFSSYGMHWVRQAPGKGLEWVAFIRYDGSNKYYADSVKGRFTISRDNSKNTLYLQMNSLRAEDTAVYYCKTHGSHDNWGQGTMVTVSS
VL: QSVLTQPPSVSGAPGQRVTISCSGSRSNIGSNTVKWYQQLPGTAPKLLIYYNDQRPSGVPDRFSGSKSGTSASLAITGLQAEDEADYYCQSYDRYTHPALLFGTGTKVTVL
binding result (recombinant human IL-12): binds
